Consider two substances from PMC7387800.

Series [1] has as its target VqmA-FLAG (Vibrio cholerae). The series is described as follows: non-reducing SDS-PAGE with anti-FLAG immunoblot (disulfide-linked dimer); cells treated 1 h with 25 μM DPO, in the presence or absence of O2; lysate boiled in SDS-PAGE buffer without BME. In general terms: Immunoblotting shows a protein as a band on a membrane.
The target in series [2] is VqmA-FLAG (Vibrio cholerae).
In series [3] the test system is 6xHis-VqmA C134A (Vibrio cholerae C6706?). Kind of series: EMSA. (A gel shift assay detects complexes by their altered migration in electrophoresis.)
For series [4], the system named is 6xHis-VqmA WT (Vibrio cholerae C6706?). Kind of series: EMSA.

As usually defined, the stoichiometry N is a count of units in the complex or per binding partner. In series [1], VqmA-FLAG (natural protein) returned a percent of Holo-VqmA with the intermolecular C134-C134 disulfide bond of 40 to 50% and a stoichiometry N of 2. Further, the vqmR-lacZ reporter activity in ΔvqmA Δtdh V. cholerae carrying pvqmA-FLAG, with 25 μM DPO, with against without DTT in series [2] worked out at 6 fold.
vqmR promoter DNA (PvqmR): the binding signal (fold reduction vs DTT-treated P2) in series [3] is 4. In series [4], this substance gave a binding signal (fold more potent than diamide-treated P2) of 2.
